According to PMC10066039, “Bile salt hydrolases shape the bile acid landscape and restrict Clostridioides difficile growth in the murine gut” (Nature Microbiology, 2023):

What was measured:
Assay in all cases: crystal structure; crystals grown at 20 °C by sitting drop vapour diffusion (LgasBSHa with taurine and CDCA: hanging drop); data at 100 K; molecular replacement with PDB 2HEZ; homo-tetramer in the crystal structure
LaciBSHa = target: LaciBSHa
[1] = target: LgasBSHb (Lactobacillus gasseri)
LingBSH = target: LingBSH
[2] = target: LjohBSHc (johnsonii (cluster johnsonii_1, Lactobacillaceae))
LreuBSH = target: LreuBSH
[3] = target: the molecule itself

LaciBSHa (from UniProt A0A805Z5R7 1-316) (enzyme)
stoichiometry N (LaciBSHa): 4

LgasBSHb (from UniProt A0A805Z5R7 1-316) (enzyme)
stoichiometry N [1]: 4

LingBSH (from UniProt A0A805Z5R7 1-316) (enzyme)
stoichiometry N (LingBSH): 4

LjohBSHc (from UniProt A0A805Z5R7 1-316) (enzyme)
stoichiometry N [2]: 4

LreuBSH (from UniProt A0A805Z5R7 1-316) (enzyme)
stoichiometry N (LreuBSH): 4

B1: LgasBSHa (enzyme, Lactobacillus gasseri, UniProt A0A805Z5R7 1-316, looked up)
chain: MCTGLRFTDDQGNLYFGRNLDVGQDYGEGVIITPRNYPLPYKFLDNTTTKKAVIGMGIVVDGYPSYFDCFNEDGLGIAGLNFPHFAKFSDGPIDGKINLASYEIMLWVTQNFTKVSDVKEALKNVNLVNEAINSSFAVAPLHWIISDKDEAIIVEVSKQYGMKVFDDKLGVLTNSPDFNWHLTNLGNYTGLDPHDATAQSWNGQKVAPWGVGTGSLGLPGDSIPADRFVKAAYLNVNYPTVKGEKANVAKFFNILKSVAMIKGSVVNKLGSDEYTVYTACYSAATKTYYCNFENDFELKTYKLDDETMNADKLITY
notes: bile salt hydrolase LgasBSHa (cluster gasseri_1), amplified from genomic DNA; selectivity loop GVG with V211 in its centre; catalytic cysteine at position 2; Crystallised with taurine and with taurine plus CDCA; also called taurine-preferring BSH; bile salt hydrolase; source: E. coli BL21-G, purified (HisTrap HP, Superdex 200)
stoichiometry N [3]: 4
